# Measurements from US20090148466A1, “Process for the Preparation of Hypoallergenic Mosaic Antigens” (BIOMAY AG, priority 2003, published 2009).
# B1: rPhl p 2: recombinantly produced wild type timothy grass pollen allergen Phl p 2, his-tagged (protein)
# chain: MVPKVTFTVEKGSNEKHLAVLVKYEGDTMAEVELREHGSDEWVAMTKGEGGVWTFDSEEPLQGPFNFRFLTEKGMKNVFDDVVPEKYTIGATYAPEEHHHHHH
# B2: P2M: recombinant his-tagged mosaic protein: the three Phl p 2-derived peptides recombined in altered order 1, 3, 2 (SEQ ID NO:1) (protein)
# chain: MVPKVTFTVEKGSNEKHLAVLVKYEGDTMAEVELFRFLTEKGMKNVFDDVVPEKYTIGATYAPEEREHGSDEWVAMTKGEGGVWTFDSEEPLQGPFNHHHHHH
# modifications: His tag
# Experiments:
# [1] = test system: grass pollen allergic patients; experiment: Skin prick test (immediate type skin reactions); conditions: standardized skin prick solution
# Protocol: SPTs (skin prick tests) were performed on the individuals' forearms. Twenty microliter aliquots containing 5 concentrations of rPhl p 2 and of Phl p 2-derived mosaic P2M (1 μg/ml, 2 μg/ml, 4 μg/ml, 8 μg/ml, 16 μg/ml) were applied. In addition, standardized skin prick solutions (timothy grass pollen extract and histamine) (Allergopharma, Reinbeck, Germany) were tested. Reactions were recorded 20 minutes after SPT by photography and by transferring the ballpoint pen-surrounded wheal area with a scotch tape to paper. The mean wheal diameter (Dm) was calculated by measuring the maximal longitudinal and transversal diameter and dividing their sum by 2 as described by Focke et al., 2001.
# [2] = Characteristics of Phl p 2-derived synthetic peptides (isoelectric point); type: physicochemical
# Description: Table 1: Characteristics of Phl p 2-derived synthetic peptides. […] Peptide 1 corresponds to SEQ ID NO:3, Peptide 3 corresponds to SEQ ID NO:4 and Peptide 2 corresponds to SEQ ID NO:5.
# [3] = test system: IgE antibodies in sera from grass pollen allergic patients; experiment: IgE reactivity by dot blot with sera from grass pollen allergic patients; type: binding, human; conditions: for IgE binding capacity (dot blot): sera from 12 timothy grass pollen allergic patients
# Protocol: The allergenic activity of the Phl p 2-derived peptides was evaluated by comparing the IgE-reactivity of complete rPhl p 2 with the peptides by dot blot analysis (FIG. 1). Nitrocellulose-dotted Phl p 2-derived peptides (P1-P3), an immunologically unrelated major grass pollen allergen, rPhl p 5 (Vrtala S, Sperr W R, Reimitzer I, van Ree R, Laffer S, Müller WD, Valent P, Lechner K, Rumpold H, Kraft D, Scheiner 0, Valenta R. cDNA cloning of a major allergen from timothy grass (Phleum pratense) pollen; characterization of the recombinant Phl p V allergen. J. Immunol. 1993, 151: 4773-4781), and for control purposes, human serum albumin as well as a control peptide were exposed to sera from grass pollen allergic patients and to serum from a non-allergic individual.
# Bound IgE antibodies were detected as described previously (Valenta R, Duchêne M, Ebner C, Valent P, Sillaber C, Deviller P, Ferreira F, Tejkl M, Edelmann H, Kraft D, Scheiner O. Profilins constitute a novel family of functional plant pan-allergens. J. Exp. Med. 1992, 175: 377-385).
# (§1) The IgE binding capacity of purified Phl p 2 mosaic (P2M) was compared with that of Phl p 2 wildtype by dot blot experiments as described for the peptides using sera from twelve timothy grass pollen allergic patients (FIG. 7). […] Basophils from a grass pollen allergic patient were enriched by dextran sedimentation and exposed to increasing concentrations of purified rPhl p 2 or rPhl p 2 mosaic as described (Valent P, Besemer J, Muhm M, Majdic O; Lechner K, Bettelhei P. Interleukin 3 activates human blood basophils via high-affinity binding sites. Proc. Natl. Acad. Sci. USA 1989, 86: 5542-5546).
# [4] = test system: Basophils from a grass pollen allergic patient; experiment: Basophil histamine release; type: cell-based, human
# Description: as §1
# Histamine released in the cell free supernatants was determined in triplicates by radioimmuno assay and is expressed as mean percentage of the total histamine content of the cells as described by Valent et al.
# serum IgE = conditions: cited from earlier work
molecule,measurement,setting,value
"NCCc1c[nH]cn1 [Histamine, histamine]",mean wheal diameter,[1]; Individual 1,8 mm
same,mean wheal diameter,[1]; Individual 2,8 mm
"Peptide 2: synthetic Phl p 2-derived peptide; Table 1 prints aa 65-96, SEQ ID NO:4; text says aa 34-64 (REHGSDEWVAMTKGEGGVWTFDSEEPLQGPFNC) [synthetic Phl p 2-derived peptide; text says aa 34-64]",Isoelectric point,[2],4.03
"Peptide 3: synthetic Phl p 2-derived peptide; Table 1 prints aa 34-64, SEQ ID NO:5; text says aa 65-96 (CFRFLTEKGMKNVFDDVVPEKYTIGATYAPEE) [synthetic Phl p 2-derived peptide; text says aa 65-96]",Isoelectric point,[2],4.45
B1,IgE reactivity (dot blot),"[3]; nitrocellulose-dotted, sera from 35 grass pollen allergic patients",Sera from all 35 grass pollen allergic patients showed IgE reactivity
same,IgE binding capacity (dot blot),[3],Sera from all 12 grass pollen allergic patients contained IgE antibodies against rPhl p 2
same,concentration of maximal histamine release,[4]; basophils from a grass pollen allergic patient,10^−3 μg/ml
same,share of grass pollen allergic individuals whose serum IgE reacts,serum IgE,about 70%
B2,IgE binding capacity (dot blot),[3],no serum exhibited IgE reactivity
same,reduced allergenic activity compared to the rPhl p 2 allergen,[4]; basophil histamine release,more than 1000 fold
